{"source": "patent US20100158924A1", "about": "“Expression of the cysteine protease legumain in vascular and inflammatory diseases” (Wyeth, LLC, priority 2006, published 2010)", "key": {"mouse legumain": {"biological_target": "T1, mouse legumain (Mus musculus, UniProt O89017)", "T1 construct": "expressed in transfected cells; host or cells: HEK293 cells infected with adenovirus", "T1 sequence (O89017 18-325)": "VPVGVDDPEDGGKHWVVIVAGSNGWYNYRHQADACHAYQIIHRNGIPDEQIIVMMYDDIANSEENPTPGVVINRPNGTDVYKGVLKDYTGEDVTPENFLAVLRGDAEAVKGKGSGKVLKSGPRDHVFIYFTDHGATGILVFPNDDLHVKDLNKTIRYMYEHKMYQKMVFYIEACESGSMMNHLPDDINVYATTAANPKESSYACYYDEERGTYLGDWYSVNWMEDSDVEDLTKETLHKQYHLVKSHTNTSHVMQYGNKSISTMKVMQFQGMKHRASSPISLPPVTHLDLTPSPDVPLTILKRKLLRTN", "assay": "HEK293 cell-surface legumain activity assay (Z-AAN-MCA hydrolysis)", "format": "cell-based", "settings": "inhibitor at 100 nM, live HEK293 cells overexpressing mouse legumain, pH 5.8, FIG. 7", "protocol": "HEK293 cells were plated in 96-well black tissue culture plate (BD Biosciences) and infected with adenovirus expressing mouse legumain at MOI of 10. 24 hours post infection, the cells were washed once with legumain assay buffer [39.5 mM citric acid, 125 mM Na2HPO4 (pH 5.8), 1 mM EDTA, 0.8% NaCl], and 50 μl of assay buffer containing 10 nM of the substrate Z-AAN-MCA (Peptide Institute, Louisville, Ky.) was added to each well. The protease inhibitors cystatin C(R&D Systems, Minneapolis, Minn.) or E64 (Sigma) were included in the assay buffer at a concentration of 100 nM. The plates were incubated at 37° C. for 10 min and measured for fluorescence in a VICTOR 3™ fluorescence plate reader (PerkinElmer, Wellesley, Mass.) using an excitation filter of 360 nm and an emission filter of 460 nm. Repeated measurements were carried out once every 5 min over a period of 20 min at room temperature. The increase of fluorescence over time was plotted."}, "legumain": {"system": "legumain", "settings": "background literature; cited from earlier work"}, "primary human monocytes": {"system": "primary human monocytes", "assay": "Human monocytes migration assay (modified Boyden chamber)", "format": "cell-based", "settings": "for chemoattractant function: data not shown", "protocol": "Human monocytes were isolated from the blood of healthy donors using the negative selection method with the Monocyte Isolation Kit (Miltenyi Biotech) according to manufacturer's instructions. The purity of isolated monocytes was confirmed by flow cytometry on CD 14-stained cells. Cells were tested in a modified Boyden chamber assay using Multi Screen 96-well filtration plate (Millipore, 5.0 μm pore size). Serum-starved monocytes were added to the top chamber (20,000 cells/well), and serum-free culture medium was added to the bottom chamber with or without purified legumain (R&D Systems). VEGF (R&D Systems) was used as a positive control. Cells that migrated into the bottom chamber were quantified using a luminescent cell viability assay (CellTiter-Glo® Assay, Promega, Madison, Wis.) at 2 hours."}, "HUVECs [1]": {"system": "HUVECs", "assay": "In vitro wound-healing assay, HUVECs", "format": "cell-based, human", "protocol": "(§1) HEK293 cells (ATCC, Manassas, Va.) used at passage 10 and HUVECs (Cambrex, Walkersville, Md.) used at passage 3 were seeded onto single-chamber slides (Lab-Tek cat# 177410, Campbell, Calif.). HEK293 cells were cultured to >80% confluence in DMEM supplemented with 10% FBS and 1% penicillin/streptomycin/L-glutamine (Cat# 10378-016, Gibco, Invitrogen, Carlsbad, Calif.), and HUVECs were grown to >90% confluence in EGM (Cat# CC-3124, Cambrex, East Rutherford, N.J.). After washing the cells in serum-free medium, the monolayers were mechanically wounded using a cell scraper (Cat# 3010, Costar [Corning], Fisher Scientific, Pittsburgh, Pa.) to obtain a rectangular denuded area of 2.0×1.7 cm^2. Wounded cells were then incubated in serum-free medium supplemented with 0.05% delipidized BSA (BD Biosciences, Bedford, Mass.) and with VEGF (10 ng/mL, R&D Systems, Minneapolis, Minn.) or legumain (10 ng/mL or 25 ng/mL, R&D Systems, Minneapolis, Minn.) for 24 hours (HEK293 cells) or 20 hours (HUVECs). Wound healing was quantified by measuring the number of cells present in the area of the initial wound using a luminescent cell viability assay (CellTiter-Glo® Assay, Promega, Madison, Wis.)."}, "HUVECs [2]": {"system": "HUVECs", "assay": "Modified Boyden chamber Matrigel invasion assay, HUVECs", "format": "cell-based, human", "from_the_text": "In a modified Boyden chamber assay, 25,000 serum starved HUVECs loaded into the top chamber were allowed to invade a Matrigel coated PET membrane ([…], Becton Dickinson, BioCoat Angiogenesis System: Endothelial Cell Invasion) in response to purified legumain added to the bottom chamber. Cells that invaded through the Matrigel matrix were quantified using a luminescent cell viability assay (CellTiter-Glo® Assay, Promega, Madison, Wis.). VEGF was used a positive control."}, "HEK293 cells": {"system": "HEK293 cells", "assay": "In vitro wound-healing assay, HEK293 cells", "format": "cell-based, human", "settings": "legumain at 10 ng/mL and 25 ng/mL, 24 hours, p<0.05, FIG. 8", "protocol": "as §1"}}, "note": "* marks the point of attachment. Fmoc = O=C(OCC1c2ccccc2-c2ccccc21)*", "data": [{"molecule": "CC(C)C[C@H](NC(=O)[C@H]1O[C@@H]1C(=O)O)C(=O)NCCCCN=C(N)N", "note": "(relative stereo) [E64, trans-epoxysuccinyl-L-leucylamido-(4-guanidino)butane, reference compound]", "values": [{"measurement": "inhibition of cell-surface legumain activity", "setting": "mouse legumain", "value": "not"}, {"measurement": "effect on legumain activity", "setting": "legumain", "value": "unaffected"}]}, {"molecule": "[Cu+2]", "note": "[Cu2+]", "values": [{"measurement": "effect on legumain activity", "setting": "legumain", "value": "inhibition"}]}, {"molecule": "[Hg+2]", "note": "[Hg2+]", "values": [{"measurement": "effect on legumain activity", "setting": "legumain", "value": "inhibition"}]}, {"molecule": "Cc1cccc(C)c1C(=O)OCC(=O)C(CC(N)=O)NC(=O)OCc1ccccc1", "note": "(stereo not shown) [MV026630, 2,6-dimethyl-benzoic acid 3-benzyloxycarbonylamino-4-carbamoyl-2-oxo-butyl ester]", "values": [{"measurement": "effect on legumain activity", "setting": "legumain", "value": "inhibit"}]}, {"molecule": "C[C@H](NC(=O)[C@H](Cc1ccccc1)NC(=O)OCc1ccccc1)C(=O)C=[N+]=[N-]", "note": "[Z-Phe-Ala-CHN2]", "values": [{"measurement": "effect on legumain activity", "setting": "legumain", "value": "unaffected"}]}, {"molecule": "CC(=O)N[C@@H](CC(C)C)C(=O)N[C@@H](CC(C)C)C(=O)N[C@H](C=O)CCCNC(=N)N", "note": "[leupeptin]", "values": [{"measurement": "effect on legumain activity", "setting": "legumain", "value": "unaffected"}]}, {"molecule": "O=S(=O)(O)c1cc[c]([Hg][Cl])cc1", "note": "[p-chloromercuribenzene-sulfonic acid]", "values": [{"measurement": "effect on legumain activity", "setting": "legumain", "value": "inhibition"}]}, {"molecule": "Fmoc-AENK-NH2", "values": [{"measurement": "effect on legumain activity", "setting": "legumain", "value": "inhibitor"}]}, {"molecule": "VEGF [reference compound]", "values": [{"measurement": "number of migrated cells compared with legumain at 25 ng/mL", "setting": "primary human monocytes; VEGF at 10 ng/mL, positive control", "value": "similar"}, {"measurement": "increase in migration compared with legumain at 25 ng/mL", "setting": "HUVECs [1]; VEGF at 10 ng/mL, positive control, FIG. 9", "value": "same extent"}, {"measurement": "invasion response compared with 25 ng/mL legumain", "setting": "HUVECs [2]; 10 ng/mL VEGF, 22 hour period", "value": "similar"}]}, {"molecule": "heat-denatured form: heat-denatured form of legumain (protein, UniProt Q99538 18-323, looked up, heat-denatured, heat-denatured form of legumain) Legumain: VPIDDPEDGGKHWVVIVAGSNGWYNYRHQADACHAYQIIHRNGIPDEQIVVMMYDDIAYSEDNPTPGIVINRPNGTDVYQGVPKDYTGEDVTPQNFLAVLRGDAEAVKGIGSGKVLKSGPQDHVFIYFTDHGSTGILVFPNEDLHVKDLNETIHYMYKHKMYRKMVFYIEACESGSMMNHLPDNINVYATTAANPRESSYACYYDEKRSTYLGDWYSVNWMEDSDVEDLTKETLHKQYHLVKSHTNTSHVMQYGNKTISTMKVMQFQGMKRKASSPVPLPPVTHLDLTPSPDVPLTIMKRKLMNTN", "values": [{"measurement": "chemoattractant function", "setting": "primary human monocytes", "value": "retain the chemoattractant function"}]}, {"molecule": "cystatin M: cystatin reported to inhibit legumain (protein, UniProt Q15828 29-149, looked up) Cystatin-M: RPQERMVGELRDLSPDDPQVQKAAQAAVASYNMGSNSIYYFRDTHIIKAQSQLVAGIKYFLTMEMGSTDCRKTRVTGDHVDLTTCPLAAGAQQEKLRCDFEVLVVPWQNSSQLLKHNCVQM", "values": [{"measurement": "effect on legumain activity", "setting": "legumain", "value": "inhibited"}]}, {"molecule": "legumain: purified proform of the lysosomal cysteine protease legumain (R&D Systems), tested as chemoattractant (protein) VPVGVDDPEDGGKHWVVIVAGSNGWYNYRHQADACHAYQIIHRNGIPDEQIIVMMYDDIANSEENPTPGVVINRPNGTDVYKGVLKDYTGEDVTPENFLAVLRGDAEAVKGKGSGKVLKSGPRDHVFIYFTDHGATGILVFPNDDLHVKDLNKTIRYMYEHKMYQKMVFYIEACESGSMMNHLPDDINVYATTAANPKESSYACYYDEERGTYLGDWYSVNWMEDSDVEDLTKETLHKQYHLVKSHTNTSHVMQYGNKSISTMKVMQFQGMKHRASSPISLPPVTHLDLTPSPDVPLTILKRKLLRTN", "values": [{"measurement": "fold increase in migration of monocytes relative to control", "setting": "primary human monocytes; 25 ng/mL, 2 hours", "value": 2.3, "unit": "fold"}, {"measurement": "migration of human monocytes towards legumain", "setting": "primary human monocytes; Boyden chamber, 2 hours, FIG. 6", "value": "dose-dependent increase"}, {"measurement": "chemoattractant function", "setting": "primary human monocytes", "value": "retain the chemoattractant function"}, {"measurement": "minimal effective concentration of legumain", "setting": "primary human monocytes; migration of primary human monocytes, Boyden chamber, 2 hours", "value": 25, "unit": "ng/mL"}, {"measurement": "cell migration relative to control", "setting": "HEK293 cells", "value": "significant increase in cell migration"}, {"measurement": "cell migration relative to control", "setting": "HUVECs [1]; legumain at 25 ng/mL, 20 hours, p<0.05, FIG. 9", "value": "significant increase in cell migration"}, {"measurement": "number of cells invading a Matrigel coated membrane", "setting": "HUVECs [2]; 22 hour period, FIG. 10", "value": "dose-dependent increase"}, {"measurement": "cell invasion relative to control", "setting": "HUVECs [2]; legumain at 25 ng/mL, p<0.05, FIG. 10", "value": "significant increase in cell invasion"}]}, {"molecule": "cystatin C: protease inhibitor cystatin C (R&D Systems) (protein, UniProt P01034 27-146, looked up) Cystatin-C: SSPGKPPRLVGGPMDASVEEEGVRRALDFAVGEYNKASNDMYHSRALQVVRARKQIVAGVNYFLDVELGRTTCTKTQPNLDNCPFHDQPHLKRKAFCSFQIYAVPWQGTMTLSKSTCQDA", "values": [{"measurement": "inhibition of cell-surface legumain activity", "setting": "mouse legumain", "value": "inhibited"}, {"measurement": "effect on legumain activity", "setting": "legumain", "value": "inhibited"}]}, {"molecule": "ovocystatin: cystatin reported to inhibit legumain (protein, UniProt P01038 24-139, looked up) Cystatin: SEDRSRLLGAPVPVDENDEGLQRALQFAMAEYNRASNDKYSSRVVRVISAKRQLVSGIKYILQVEIGRTTCPKSSGDLQSCEFHDEPEMAKYTTCTFVVYSIPWLNQIKLLESKCQ", "values": [{"measurement": "effect on legumain activity", "setting": "legumain", "value": "inhibited"}]}]}
